Source: patent US20250346643A1, “TROPOMYOSIN KINASE RECEPTOR (TRK) LIGANDS AS THERAPEUTICS TO SUPPORT LIVER REGENERATION” (Vanderbilt University, priority 2024, published 2025)

Assays:
[1] = Storage stability of solubilized recombinant NTF3 at -80 C; assay type: physicochemical; settings: solubilized in 0.1% BSA/PBS, stored at -80 C
Experimental: Treatment with recombinant NTF3. Four months old mice were injected via tail vein for 4 consecutive days with recombinant NTF3 (STEMCELL technology, Vancouver, Canada; cat. 78074, lots 1000070683, 1000077434) diluted in sterile 0.9% saline (0.9% NaCl) or vehicle only. Mice were weighed daily and recombinant NTF3 given at 20 ng/g body weight or 100 ng/g body weight, respectively. Lyophilized NTF3 was solubilized in 0.1% BSA/PBS (bovine serum albumin, Sigma-Aldrich, St. Louis, MO; A3059) and stored at −80° C. until use.
Human HepG2 and mouse AML12 cells were grown in 6-well plates. Cells were treated with NTF3 (20 ng/ml) purchased from STEMCELL technologies, Vancouver, Canada (cat. 78074), R&D Systems, Minneapolis, MN (267-N3), Gibco, Waltham, MA (PHC7036) and/or Loxo-195 (5-10 nM) (Selleckchem, Houston, TX; S8636) in complete growth media without L-glutamine for 2 hours. Lyophilized NTF3 was solubilized with sterile filtered PBS supplemented with 0.1% BSA, aliquoted and stored at −80° C. until use. […] Protein concentration of supernatants were determined by Direct Detect Spectrophotometer (MilliporeSigma, Burlington, MA). […]
Immunoblotting. […] Protein concentration of supernatants was determined by Direct Detect Spectrophotometer (MilliporeSigma, Burlington, MA). […] The protein concentration of supernatants was determined by a Direct Detect® spectrophotometer (MilliporeSigma, Burlington, MA). […]

[2] = test system: P-TRKA Tyr674/675, P-TRKB Tyr706/707; assay: Western blot of phosphorylated TRK in HepG2 cell lysates; assay type: cell-based, human; settings: HepG2, NTF3 (FIG. 9G-H)
Experimental: Human HepG2 and mouse AML12 cells were grown in 6-well plates. […] Lyophilized NTF3 was solubilized with sterile filtered PBS supplemented with 0.1% BSA, aliquoted and stored at −80° C. until use. […] Cell lysates were sonicated and centrifuged for 10 min at 18,800×g. Protein concentration of supernatants were determined by Direct Detect Spectrophotometer (MilliporeSigma, Burlington, MA).
For immunoblot analysis, 30-50 μg of protein diluted in LSD sample buffer (Invitrogen, Waltham, MA) were analyzed per SDS-PAGE (NuPAGE™, Invitrogen, Waltham, MA) using MOPS buffer or MES buffer (Invitrogen, Waltham, MA). Gels were stained with Coomassie (Bio-Safe Coomassie G-250 Stain, Bio-Rad, Hercules, CA) and transferred onto PVDF membranes using semi-dry blotting (Trans-Blot SD, Bio-Rad, Hercules, CA). Images were visualized on an Amersham™ Imager 680 (Cytiva, Marlborough, MA).

## NTF3: neurotrophin-3, recombinant protein; HSC-derived hepatocyte mitogen, ligand of TRKA, TRKB, TRKC
[1]
  storage time at which activity and protein concentration declined significantly: approximately 3 months
[2]
  TRK phosphorylation (P-TRKA Tyr674/675, P-TRKB Tyr706/707): Increased TRK phosphorylation
